According to the nanobody polyreactivity screen of Harvey et al. (2022):

Experiment: yeast display, Sf9 membrane polyspecificity reagent, FACS + sequencing; frameworks hold sequencing errors
Procedure, shortened: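 A nanobody's polyreactivity label depends on the gate it was sorted from. Yeast display cells were stained with 10% biotinylated, detergent-solubilized Sf9 membrane reagent for 1 hour at 4 °C, enriched on streptavidin microbeads and sorted by FACS. The low and high (top ~1%) gates were set on anti-HA fluorescence for expression and streptavidin fluorescence for reagent binding.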

| Sequence | polyreactivity (PSR sort gate) |
| --- | --- |
| QVQLVESGGGLVQAGGSLRLSCAASGSTFVGYAMRGYRQAPGKERELVADIDSIGGSTYYADSVKGRFTISRDNAKNTVYLQMNSLKPEDTAVYYCAARRFDTALVLYDYWGQGTQVTVSS | low polyreactivity |
| QVQLVESGGGLVQAGGSLRLSCAASGFTFQYYAMGWYRQAPGKERELVPSISWSGGSTYYADSVKGRFTISRDHAKNTVYFQMNSLKPEDTAVYYCADSVTYLFCSARFSAYGYWGQGTQVTVSS | high polyreactivity |
| HVQLVESGGGLVQAGGSLRLSCAASGFTIKYYGMGWYRQAPGKERELVAAISRRGGSTYYADSVKGRFTISRDNAKNTVYLQMNSLKPEDTAVYYCNAQFARSSGFNYWGQGTQVTVSS | high polyreactivity |
| QVQLVETGGGLVQAGGSLRLSCAASGRTFGHNDMGWSRQAPGKERELVATISSDGSTNYADSVKGRFTISRDNAKNTVYLQMNSLKPEDTAVYYCAKVYQYVEYDYWGQGTQVTVSS | low polyreactivity |
| QVQLVESGGGLVQAGGSLRLSCAASGRTFYVYAMGWYRQAPGKERELVAAITRGGRTKYADSVKGRFTISRDNAKNTVYLQMNSLKPEDTAVYYCATVASPNRGGVSRYDYWGQGTQVTVSS | high polyreactivity |
| QVQLVESGGGLVQAGGILRLSCAASGFTFISNAMGWYRQAPGKERELVAAISSSGGRTYYADSVKGRFTISRDNAKNTVYLQMNRLKPEDTAVYYCNADRSLLYSRKIEYDYWGQGTQVTVSS | low polyreactivity |
| QVQLVESGGGLVQAGRSLRLSCAASGRIFTPNAMGWYRQAPGKERELVAAISSSGRTSYADSLKGRFTNTSDNAKITVYLQMNSLKPEDTAVYYCNATWRWTRRGYDYWGQGTQVTVSS | low polyreactivity |
| QVQLVESGGGLVQAGVSLRLSCAASGSIFRHNAMGWYRQAPGKERELVAAINWSGGRTYYADSVKGRFTISRDNAKNTVYLHMNSLKPEDTAVYYCADPVPRSWYDYWGQGTQVTVSS | high polyreactivity |
| QVQLVESGGGLVQAGGSLRLSCAASGSISPYNAMGWYRQAPGKERELVAAISSGGRTYYADSVKGRFTISRDNAKNTVYLQMNSLKPEDTAVYYCARGYWRVYGYSFWYTPEVGYWGQGTQVTVSS | high polyreactivity |
| QVQLVESGGGLVQAGGSLRLSCAASGFIFGLYAMGWYRQAPGKERELVAAISGSGGSTYYADSVKGRFTISRDNAKNTVYLQMNSLKPEDTAVYYCNRAQGVHTYVYRYGYWGQGTQVTVSS | low polyreactivity |
| QVQLVESGGGLVQAGGSLRLSCAASGFIFDYYTMGWYRQAPGKERELVASIRSSGSSTYYADSVKGRFTISRDNAKNTVYLQMNSLKPEDTAVYYCARRYVVNRDWGDDYWGQGTQVTVSS | high polyreactivity |
| QVQLVESGGGLVQAGGSLRLSCAASGFTFSTYAMGWYRQAPGKERELVAAISFSGGSTYYADSVKGRFTISRDNAKNTVYLQMNSLKPEDTAVYYCNAVFGYRLPGNYWGQGTQVTVSS | low polyreactivity |
| QFQLVESVGGLVQAGGSLRLSCAASGYIFRHYAMGWYRQAPGKERELVAAISGRGGSTYYADSVKGRFTISRDNAKNTVYLQMNSLKPEDTAVYYCAKDRKAVGDFYYWGQGTQVTVSS | high polyreactivity |
| QVQLVESGGGLVQAGGSLRLSCAASGSIFTGNAMGWYRQAPGKERELVASSTTTTDSTYYADSVKGRFTISRDNAKNTVYLQMNSLKPEDTAVYYCAAEYAVAWKYGLYFYFHFDYWGQGTQVTVSS | low polyreactivity |
| QVQLVESGGGLVQAGGSLRLSCAASGSIFHPYAMGWYRQAPGKERELVAAISKSGGNTYYADSVKGRFTISRDNAKNTVYLQMNSLKPEDTAVYYCAALDYWGQGTLVTVSS | low polyreactivity |
| QVQLVESGGGLVQAGGSLRLSCAASGSTFVSNTMGWYRQAPGKERELVAAITWTGGRTYYADSVKGRFTISRDNAKNTVYLQMNSLKPEDTAVYYCAAVGTRKMYYWGQGTQVTVSS | high polyreactivity |
| QVQLVESGGGLVQAGGSLRLSCAASGRILTTYAMGWYRQAPGKERELVAAITTIGGRTYYADSVKGRFTISRDNAKNTVYLQMNSLKPEDTAVYYCAADVYYEYDYWGQGTQVTVSS | low polyreactivity |
| QVQLVESGGRLVQAGGSLRLSCAASGSIFRANAMVWYRQAPGNERELVAAISPNGGSTYYADSVKGRFTISRDHAKNTVYLQMNSLKPEDTAVYYCNTDHRNIWFRFKYDYWGQGTQVTVSS | high polyreactivity |
| QVQLVESGGGLVQAGGSLRLSCAASGTTFYHNVMGWYRQAPGKERELVASIDTGDSTNYADSVKGRFTISRDNAKNTVYLQMNSLKPEDTAVYYCNADSYPALNKRGYDYWGQGTQVTVSS | low polyreactivity |
| QVQLVESGGGLVQAGGSLRLSCAASGSTFGWNAMGRYRQAPGKERELVAAISSSGGSTNYADSVKGRFTISRDNAKNTVYLQMTSLKPEDTAVYYCAKARRPGYGYGYWGQGTQLTVSS | low polyreactivity |
| QVQLVESGGGLVQAGGSLRLSCAASGRIFYFYAMGWYRQAPGKERELVAAITGSAGGTYYADSVKGRFTISRDNAKNTVYLQMNSLKPEDTAVYYCNAGSTRYWRSRYDYWGQGTQVTVSS | low polyreactivity |
| QVQLVESGGGLVKAGGSLRLSCAASGRTFQIYAMGWYRQAPGKESELVAAISRTGASTYYADSVKGRFTISRDKAKNTLFLQLNSLKPEDTAVYYCAANGHCRVYFGGCHWGQGTQVTVSS | high polyreactivity |

| Sequence | polyreactivity (PSR sort gate) |
| --- | --- |
| QVQLVESGGGIVQSGGSLRLSCDASGFIFGGNAMGWYIQAPGKERELVARISSGGITSYADSVKGRFTISRDNAKNTVYLHMNSQKPDDTAVYYCAARNGRIAWMNYWGQGTQVTVSS | low polyreactivity |
| QVQLVESGGGLVQAGGSLRLSCAASGSIFRWYAMGWYRQAPGKERELVAGISSTGGSTYYADSVKGRFTISRDNAKNTVYLQMNSLKPEDTAVLYCAVVSYPSAFRRYNYWGQGTQVTVSS | high polyreactivity |
| QVQLVESGGGLVQAGGSLRLSCAASGYTFYPYARGWYRQAPGKGRELVAVITSGDSTYYADSVKGRFTISRDNAKNTVYLQMNSLKPEDSAVYYCNTLGFDYYYYEYDYWVQGTQVTVSS | low polyreactivity |
| QVQLVESGGGLVQAGGSLRLSCAASGFIFDYNAMGWYRQAPGKERELVAAITSGGGSTYYADSVKGRFTISRDNAKNTVYLQMNSLKPEDTAVYYCNAVPSQHDEFDYWGQGTQVTVSS | low polyreactivity |
| QVQLVESGGGLVQAGGRLRLSCAASGSIFPQYAMGWYRQAPGKERELVAAITWSGSRTRYADSVKGRFTISRDNAKNTVYLQMNSLKPEDTAVYYCAARVNGQTYYYWGQGTQVTVSS | high polyreactivity |
| QVQLVESGGGLVQAGGSLRLSCAASGLIFYRYVMGWYRQAPGKERELVASISTSGGRTYYADSVKGRFTISRDNAKNTVYLQMNSLKPEDTAVYYFAADFESYSRYYDGYDYWGQGTQVTVSS | high polyreactivity |
| QVQLRESGAGGRQPAPELRCERQYFYWSADGLVSQPPGKEREFVAGIDRGTITNYADSVRGRFTISRDNAKNTVYLQMNSLKPEDTAVYYCNAEYRRRPKLGDEDEYWGHGTQVTVSS | high polyreactivity |
| QVQLVESWGGLVQAGGSLRLSCAASGFNPNAMGWYRQAPGKERELVAAISSNGGSTYYADSVKGRFTISRDNAKKTVYLQMNSLKPEDTAVYYCNRDQWRHTPAEGYYWGQGTQVTVSS | low polyreactivity |
| QVQHVESGGGLLQAGGSLRLTCAASGSTFGTYAMGWYRQAPGKERELVATISIGGITYYADSVKGRFTISRDNAKNTVYLQLNSLKPEDTAVYYCAKDVNDATSRSDPSGDDYWGQGTQVTVSS | low polyreactivity |
| QVQLVESGGGLVKAGGSLRLSCAASGLIFKLNAMGWYRQSPGKERELVAAIRASTGSTYYADSVKGRFTISRDNAKNTVYLQMNSLKPEDTAVYYCAVSLRWYFFLMDYWGQGTQVTVSS | high polyreactivity |
| QVQLVESGGGLVQAGGSLRLSCAASGSIFVEYAMGWYRQAPGKERELVASITWSSTSTYYADSVKGRFTISRDNAKNTVYLQMNSLKPEDTAVYYCNTEDYQYAPYEYDYWGQGTQVTVSS | low polyreactivity |
| QVQLVESGGRLVQAGGSLRLSCAASGSTFTYNAMGWYRQAPGKESELVASISSGTTTYYADSVKGRFTISRDNAKNTVYVQMNSLKPEDTAVYYCAFDSWSRVQGWLAHNYDYWGQGTQVTVSS | low polyreactivity |
| QVQLVESGGGLVQAGGSLRLSCAASGLTFYYYAMGWYRQAPGKERELVAAITGSGGRTSYADSVKGRFTISRDNAKNTVYLQMNSLKPEDTAVYYCAARNKRRGYPWQGQQKVLNFDYWGQGTQVTVSS | high polyreactivity |
| QVQLVESGGGLVQAGGSLSLSCAASGLTFSAYAMGWYRQAPGKERELVAAISSGVSTNYADSVKGRFTISRDNAKNSVYLQMNSLKPEDTAVYYCKAEYWGAYEYWGQGTQVTVSS | high polyreactivity |
| QVQLVESVGGLVQAGGSLRLSCAASGLILANYAMGWYRQAPGKERELVAAISSSGGSTYYADSVKGRFTISRDNAKNTVYLQMNSLKPEDTAVYYCAKAYRGGSAGKSYYYWGQGTQVTVSS | high polyreactivity |
| QVQLVESGGGLVQAGGSLRLSCAASGITFRYYAMGWYRPAPGKERELVASITSGGVNTYYADSVKGRFTISRDNAKNTVYLQMNSLKPEDTAVYYCATTYVGETLTGPGDYWGQGTQVTVSS | low polyreactivity |
| QVQLVESGGGLVQAGGSLRISCAASGRTFKNYSMGWYRQAPGKERELVAAITSGGITNYADSVKGRFTISRDNAKNTVYLQMNRLKPEDTAVYYCNTRRGWRDFDYWGQGTQVTVSS | low polyreactivity |
| QVQLVESGGGLVQAGGSLRLSCAASGFIFTGNAMGWYRQAPGKERELVAAITGRGSTYYADSVKGRFTISRDNGKNSVYLQMNSLKPEDTAVYYCAAKRWWQYYWGQGTQVTVSS | high polyreactivity |
| QVQLVESGGGLVQAGGSLRISCAASGRTFFFNAMGWYRQAPGKERELVAAISRTGRTNYADSVKGRFTISRDHAKNTVYLQMNSLKPEDTAVYYCAKTSYYLFGYWGHGTQVTVSS | high polyreactivity |
| QVQLVESGGGLVQAGGSLRLSCAASGFIFSQYAMGWYRQAPGKERELVAAISYSGGSTYYADSVKGRFTISRDNAKNTVYLQMNSLKPEDTAVYYCAVSGRSYYRSDYWGQGTQVTVSS | high polyreactivity |
| QVQLVESGGGIVQAGGSLRLSCAASGNTFHYYVMGWYRQAPGKERELVAAITYTGGSTYYADSVKGRFTISRDNAKNTVYLQMISLKPEDTAVYYCAAGFSPASQLDYWGQGTQVTVSS | low polyreactivity |
